Assay results from patent US20110021974A1, “RETINITIS PIGMENTOSA TREATMENT AND PROPHALAXIS” (priority 2010, published 2011).

Key:
macular edema = conditions: in vivo; cited from earlier work
[1] = Curcumin safety for retina and CNS; conditions: in vivo
Text: Deferoxamine may modulate expression and release of inflammatory mediators in the retinitis pigmentosa as indicated in Fenton reaction by specific cell types, thus, reduce or stop the damage by our invention. Deferoxamine used with insulin of our invention along with ophthalmic drops can reduce the ROS oxidant damage, arrest, or delay the processes of retinitis pigmentosa. We have used this method to treat the CNS disease with good results. We have used the extract of Turmeric, called curcumin, with insulin as antioxidant with good results.

[2] = cited from earlier work
[3] = MSM ophthalmic drops in patients; type: in vivo
Text: We have used aqueous solutions of MSM filtered, sterilized, and mixed with insulin.

retinitis pigmentosa [4] = conditions: administered in a form suitable to obtain therapeutic tissue concentrations; cited from earlier work
[5] = system: patients with retinitis pigmentosa; conditions: cited from earlier work
[6] = in vivo; cited from earlier work
[7] = ADT given orally and as eye drops in dry mouth and dry eyes conditions; type: in vivo; conditions: 25 mg orally and nanograms concentration in eye drops
Method: Follow the instruction as described in the above EXAMPLE 1. Another drug available to treat autoimmune disease related to Sjogren's disease is an organo sulfur compound, anethole dithiolethione (ADT-trade name Sialor, sold over the counter in Canada) with hardly any side effects. The ADT stimulates the secretion of saliva, in patients with autoimmune exocrinopathy (Sjogren's syndrome). Sialor alleviates the symptoms of xerostomia and xeroophthalmia. We have used ADT 25 mg orally and ADT in nanograms concentration in liquid ophthalmic eye drops with successes in these conditions, especially, those on chemotherapy, menopausal women, and chronic smokers with dry mouth and dry eyes conditions.

photoreceptor cell = conditions: applied topically to the eyes; in vitro model; cited from earlier work
[8] = preliminary studies
[9] = Insulin added to anti allergic ophthalmic agents in eye allergy; type: in vivo; conditions: insulin with vasoconstrictors and anti allergic agents such as corticosteroids
Text: Follow the instruction as described in the above EXAMPLE 1. The symptoms of an eye allergy are mild to moderate where allergies can be severe during early spring and the beginning of fall. Self treatment to avoid allergens, to irrigate the eyes with saline (salt solution) and to place the ice packs, and the cold water compresses on eyes which this may not be effective in a severe case. The medical treatment is needed to relieve them. Retinitis pigmentosa associated with severe allergic conjunctivitis. This condition isn't helped by other treatments. Conjunctivitis may benefit from specific allergen immunotherapy (desensitization) which the therapy is usually effective. Most commonly used and prescribed medications are: levocabastine (brand name Livostin); antihistamines (antolozine) together with a medicine that constricts blood vessels (naphazoline, phenylephrine); sodium cromoglycate (4%); non-steroidal anti-inflammatory (NSAID) eye drops; and steroids (hydrocortisone, Dexamethasone, prednisolone). Eye drops containing anti allergic, vasoconstrictors, and cortisone, can be used long term to treat retinitis pigmentosa and allergic conditions. The drops with insulin applied before the use of the above described therapeutic agents.

retinitis pigmentosa [10] = assay: Insulin ophthalmic drops in oculopathies including retinitis pigmentosa; type: in vivo; conditions: used for years
Text: This and other metabolic and therapeutic qualities of the insulin will prevent the development, stop the progression, and curtail or cure the retinitis pigmentosa. I have used insulin ophthalmic drops for various oculopathies, including, retinitis pigmentosa for years with great success.

[11] = system: H2O2 induced lipid peroxidation; conditions: insulin pretreatment; cited from earlier work
[12] = system: MCF-7 human breast cancer cells; conditions: in vitro; cited from earlier work
[13] = Text: The present invention formulations contain only 0.10 to 1.00 IU per drop which the dosage can be increased or the dosage can be decreased depending upon the disease states.

CC(=O)Nc1nnc(S(N)(=O)=O)s1 [Acetazolamide]
improving the macular edema compared to brinzolamide (macular edema): more effective

COc1cc(/C=C/C(=O)CC(=O)/C=C/c2ccc(O)c(OC)c2)ccc1O [Curcumin, curcumin]
toxicity to the retina or the CNS [1]: isn't toxic to the retina or the CNS

CS(C)(=O)=O [MSM, Methylsulfonylmethane]
solubility in water [2]: soluble in water
vision reported by patients ([3]; MSM ophthalmic drops, aged, Lyme disease and cancer patients): their vision had improved
treatment result in retinitis pigmentosa, dry eye syndrome, glaucoma and other oculopathies ([3]; aqueous MSM mixed with insulin, as eye drops): good results

O=C(O)COc1nn(Cc2ccccc2)c2ccccc12 [bendazac, (1-phenylmethyl-1IH-indazol-3-yl) oxy acetic acid]
effect on retinitis pigmentosa (retinitis pigmentosa [4]): improvement in retinitis pigmentosa

CCCCCCCCCCCCCCCC(=O)OC/C=C(C)/C=C/C=C(C)/C=C/C1=C(C)CCCC1(C)C [vitamin A palmitate]
progression of retinitis pigmentosa ([5]; daily intake of 15000 IU (equivalent to 4.5 mg)): can be reduced

Insulin aspart
Onset of Action in hours [6]: ¼-½

Insulin detemir
Effective duration of action [6]: 14 h
Maximum duration [6]: ~20 h
Onset of Action [6]: 3 to 4 h
Peak action in hours [6]: 6 to 8 h

Insulin glargine
Effective duration of action [6]: 18 to 20 h
Maximum duration [6]: 20 to 24 h
Onset of Action [6]: 3 to 4 h
Peak action in hours [6]: 8 to 16 h

Insulin glulisine
Onset of Action in hours [6]: ¼-½

Insulin lispro
Onset of Action in hours [6]: ¼-½

Regular (soluble): short-acting insulin
Effective duration of action [6]: 3 to 6 h
Maximum duration [6]: 6 to 8 h
Peak action in hours [6]: 2 to 3 h

anethole dithiolethione [ADT]
treatment result in dry mouth and dry eyes conditions [7]: successes

brimonidine tartrate
photoreceptor cell degeneration (photoreceptor cell): can prevent photoreceptor cell degeneration

insulin
absorption from the conjunctival sac [8]: rapidly absorbed
relief of the allergic condition [9]: relieved rapidly
treatment result in oculopathies including retinitis pigmentosa (retinitis pigmentosa [10]): great success
H2O2 induced lipid peroxidation [11]: greatly inhibited
increase of the cytotoxic effect of methotrexate [12]: up to 10,000 fold
blood sugar levels after local application ([13]; local application incl. scalp, gums, oral and nasal mucosa, conjunctival sac, wounds, tumors): did not change the blood sugar levels
hypoglycemic effects ([13]; ophthalmic insulin drops, applicant's practice): never reported the development of a single case of hypoglycemic effects

vitamin A
postponement of blindness ([5]; vitamin A supplementation): ~10 years
